Experimental data from the supplement of paper PMC9732359.
± gives the uncertainty stated by the source.

Assay: protein stability index of a GFP-peptide fusion (yeast GPS) (PSI 1-4); higher = more stable; sorted into four equal gates, so the index is relative within each strain
Method in brief: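 Mid-log yeast cultures in leucine-free medium, carrying a pooled plasmid library, were sorted into four equal gates by their GFP/Cherry fluorescence ratio. Each plasmid expressed Cherry along with GFP fused upstream of a tiled 17-residue yeast protein peptide. Plasmids recovered from each gate were PCR-amplified and Illumina-sequenced, with reads assigned to strains by barcodes. The protein stability index was obtained by summing each gate's read frequency weighted by its gate number.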

Sequence | protein stability index (doa10∆) | protein stability index (pdr5∆) | protein stability index (san1∆) | protein stability index (ubr1∆)
NSQTVSGTPITQTESKK [SNF2] | 2.67 ± 0.05 | 2.27 ± 0.05 | 2.7 ± 0.053 | 2.39 ± 0.039
NNVSFNAKDIQIPVYDT [FAS1] | 2.36 ± 0.041 | 2.49 ± 0.046 | 2.18 ± 0.048 | 2.64 ± 0.041
GLDATKLYVSHIQVNQA [RPL17A] | 2.5 ± 0.096 | 2.99 ± 0.063 | 3 ± 0.043 | 3.05 ± 0.05
THSQTGTQQSNMYTSTQ [SIR4] | 3.03 ± 0.061 | 3.16 ± 0.046 | 2.93 ± 0.051 | 3.08 ± 0.055
ILFELYKIKGRNNSKSV [SRP72] | 2.04 ± 0.068 | 1.92 ± 0.061 | 2.75 ± 0.069 | 1.76 ± 0.062
KPETLSIGKNPFNKPNI [SWI3] | 2.85 ± 0.044 | 2.9 ± 0.041 | 2.75 ± 0.033 | 2.99 ± 0.03
WADIFAKALDGQNLKDL [RPP1A] | 3.08 ± 0.11 | 3.31 ± 0.13 | 2.58 ± 0.24 | 2.94 ± 0.2
VKRIQSVPLVIGQFLEP [RPT3] | 1.58 ± 0.064 | 1.6 ± 0.063 | 2.38 ± 0.11 | 3 ± 0.094
CKKNTKKCLKLAYENKI [POP4] | 2.77 ± 0.068 | 2.7 ± 0.076 | 2.87 ± 0.057 | 3.13 ± 0.067
DLEKTERIVVSYEYYNI [SMC2] | 2.76 ± 0.073 | 2.6 ± 0.073 | 2.71 ± 0.074 | 2.67 ± 0.045
FNTQQGIKKHSLWRRTV [YDL116W/NUP84] | 2.6 ± 0.049 | 2.76 ± 0.043 | 2.77 ± 0.048 | 2.49 ± 0.031
EILEHICYDVNDWQMLE [RPB2] | 2.84 ± 0.12 | 3.02 ± 0.086 | 2.74 ± 0.08 | 2.98 ± 0.081
RNSFIRDMIMKRNSDKV [ITC1] | 2.84 ± 0.16 | 2.86 ± 0.14 | 2.29 ± 0.16 | 2.83 ± 0.2
LEHPYGKEVEVLMETKN [SNU114] | 2.26 ± 0.083 | 2.98 ± 0.068 | 2 ± 0.1 | 2.21 ± 0.057
LITTNSVEEVILERAYK [SNF2] | 2.37 ± 0.092 | 1.85 ± 0.063 | 2.18 ± 0.09 | 1.95 ± 0.031
VRRRFARGMTSKPAGFM [RPS15] | 2.9 ± 0.071 | 2.89 ± 0.077 | 2.94 ± 0.1 | 3.07 ± 0.075
RSTRIRTKSQVIEEDYD [IRR1] | 2.89 ± 0.15 | 3.22 ± 0.082 | 3.42 ± 0.078 | 3.43 ± 0.11
TVRASSLQDLIYKRGQA [SMC2] | 2.12 ± 0.073 | 3 ± 0.088 | 2.62 ± 0.08 | 2.51 ± 0.036
PAANESEVANNGLIISW [RRP42] | 1.43 ± 0.15 | 1.49 ± 0.052 | 1.13 ± 0.28 | 1.4 ± 0.072
GWLGALTMANLPSWSLG [ARP7] | 3.07 ± 0.078 | 3.08 ± 0.062 | 2.68 ± 0.083 | 2.92 ± 0.057
NVISSKDWELEARFWHL [YDL116W/NUP84] | 3.46 ± 0.096 | 3.32 ± 0.062 | 3.43 ± 0.066 | 3.25 ± 0.068
KASSTPAGGLFGQASGA [YGL172W/NUP49] | – | – | 2.19 ± 0.26 | –
RTQPWSIMPDLYFYRNP [RPS0B] | 2.55 ± 0.051 | 2.85 ± 0.056 | 2.85 ± 0.043 | 2.6 ± 0.055
LQDWQREDEFGSIPSLT [YDL088C/ASM4] | 3.22 ± 0.073 | 3.19 ± 0.066 | 3.11 ± 0.049 | 3.53 ± 0.082
IVTPVEKAVEEKPAVKS [RPT3] | 2.6 ± 0.1 | 3.07 ± 0.064 | 3.17 ± 0.051 | 3.13 ± 0.086
VTFSFFNPQDTEENIKG [RRP45] | 2.15 ± 0.081 | 2.55 ± 0.08 | 3.08 ± 0.08 | 3.19 ± 0.076

Sequence | protein stability index (doa10∆) | protein stability index (pdr5∆) | protein stability index (san1∆) | protein stability index (ubr1∆)
NNDDNGNNNNNNSGNDN [MED2] | 2.93 ± 0.043 | 2.99 ± 0.04 | 3.01 ± 0.034 | 3.05 ± 0.041
HWSVSFQAHEITSFLLS [NAS6] | 2.28 ± 0.056 | 1.92 ± 0.051 | 1.76 ± 0.08 | 2.02 ± 0.04
KVIPYSTFRLNLSVTSP [RPO21] | 1.67 ± 0.065 | 1.53 ± 0.075 | 1.14 ± 0.24 | 1.97 ± 0.13
RQCFREKANDIGFNKFR [RPS29A] | 3.32 ± 0.15 | 3.3 ± 0.13 | 3 ± 0.098 | 2.92 ± 0.098
NSKVDMKYDIFAKFIHH [IRR1] | 2.39 ± 0.083 | 2.15 ± 0.077 | 2.31 ± 0.071 | 2.47 ± 0.054
HGNLASCHGHFGHLKLA [RPO31] | 1.48 ± 0.06 | 1.45 ± 0.061 | 1.14 ± 0.1 | 1.2 ± 0.033
FAESPFFDKTSNNQVIK [MED6] | 3.49 ± 0.081 | 2.92 ± 0.096 | 2.71 ± 0.076 | 2.96 ± 0.069
DNNITEMLEENFPEASK [YCG1] | 2.48 ± 0.097 | 2.22 ± 0.11 | 2.59 ± 0.09 | 2.74 ± 0.052
PNTKDAMSLYHSPFPFN [PRP8] | 2.64 ± 0.049 | 2.55 ± 0.053 | 2.63 ± 0.06 | 2.71 ± 0.036
SALCILKEQELVLYDAE [BRR2] | 2.47 ± 0.16 | 2.72 ± 0.12 | 2.25 ± 0.11 | 2.52 ± 0.1
VDFIKHSLSQAIKWDGS [PRE3] | 1.75 ± 0.15 | 2.29 ± 0.12 | 1.61 ± 0.26 | 2.48 ± 0.2
ILNSIPAAANLDALVDC [YJL039C/NUP192] | 2.18 ± 0.074 | 2.72 ± 0.11 | 2.39 ± 0.067 | 2.5 ± 0.12
KSSSNRSCVSNSNENGT [RPN4] | 3.02 ± 0.06 | 3.08 ± 0.07 | 3.01 ± 0.05 | 3.03 ± 0.048
DMNSNLQVLKRERDGIK [SMC1] | 3.01 ± 0.093 | 2.92 ± 0.065 | 3.03 ± 0.047 | 2.78 ± 0.078
QDVQRTCILHGPVAAQF [FAS1] | 2.12 ± 0.078 | 2.54 ± 0.057 | 2.02 ± 0.08 | 2.44 ± 0.044
VTTFLNWCAEPEHDERK [CYT1] | 3.41 ± 0.089 | 3.39 ± 0.092 | 3.08 ± 0.18 | 3.15 ± 0.077
ESYDAALSLHREILCYS [FAS2] | 2.18 ± 0.022 | 2.151 ± 0.019 | 2.28 ± 0.028 | 2.28 ± 0.017
GVRDINCVNDVLEFCKD [POP1] | 2.93 ± 0.18 | 2.82 ± 0.18 | 2.36 ± 0.24 | 3.09 ± 0.26
EIKGASETPLQKTVNLK [RPN4] | 3 ± 0.12 | 3.42 ± 0.13 | 3.05 ± 0.1 | 3.14 ± 0.056
VDNTVPSTTLFNFGGKS [YOR098C/NUP1] | 1.75 ± 0.047 | 2.07 ± 0.049 | 2.28 ± 0.058 | 2.38 ± 0.033
LKNKYESYDAALSLHRE [FAS2] | 3.181 ± 0.019 | 3.134 ± 0.016 | 3.083 ± 0.014 | 3.034 ± 0.014
GLSTDHTTQIVNLEDNT [YML103C/NUP188] | 2.89 ± 0.074 | 2.99 ± 0.078 | 2.88 ± 0.053 | 3.04 ± 0.047
PRMVRDVFRLARENAPS [RPT3] | 2.62 ± 0.17 | 2.88 ± 0.059 | 2.86 ± 0.16 | 2.89 ± 0.097
INSENDYSRKQLGYGKF [NUT1] | 3.46 ± 0.26 | – | – | 3.17 ± 0.22
LKAAFVAIGNTYGFLTP [RPS2] | 2.13 ± 0.072 | 2.27 ± 0.048 | 2.07 ± 0.095 | 2.55 ± 0.042
PEVVELCQKSPVMADLN [FAS2] | 2.63 ± 0.074 | 2.69 ± 0.078 | 2.48 ± 0.11 | 2.73 ± 0.085

Sequence | protein stability index (doa10∆) | protein stability index (pdr5∆) | protein stability index (san1∆) | protein stability index (ubr1∆)
DRSLADDYDYVMYGTAY [RPB8] | 2.56 ± 0.059 | 2.98 ± 0.064 | 3.02 ± 0.063 | 2.73 ± 0.074
LQDLSRYSRQFINNVLS [GRR1] | 2.78 ± 0.059 | 2.29 ± 0.049 | 2.56 ± 0.049 | 2.74 ± 0.051
LAFNYITYDKQEPSASQ [SRP68] | 3.19 ± 0.048 | 3.15 ± 0.056 | 2.97 ± 0.056 | 2.93 ± 0.037
LNINNPNFLIMQGKITK [SMC2] | 3.39 ± 0.26 | 2.47 ± 0.19 | 2.87 ± 0.13 | –
LQKKFVTKQSELNSSED [SMC1] | – | 3.52 ± 0.26 | – | –
LNDEGEPIKVNVRVGQA [RPN1] | 3.13 ± 0.09 | 3.03 ± 0.062 | 2.85 ± 0.065 | 3.2 ± 0.063
PKTELTKGDSTPVQPDL [YAR002W/NUP60] | 3.16 ± 0.055 | 3.14 ± 0.067 | 3.08 ± 0.072 | 3.1 ± 0.037
ARLEPGTAIGAIGAQSI [RPO31] | 2.76 ± 0.097 | 1.82 ± 0.079 | 1.49 ± 0.14 | 2.39 ± 0.053
FPEVFQVNIRFLLHNSE [SRB8] | 1.64 ± 0.1 | 1.73 ± 0.13 | – | 2.62 ± 0.17
LESVGIEIEDEKVSSVL [RPP2A] | 3.04 ± 0.075 | 2.67 ± 0.12 | 2.77 ± 0.12 | 2.78 ± 0.094
ILNDSLIYHLKDCAEVD [IRR1] | 2.05 ± 0.056 | 2.28 ± 0.06 | 2.02 ± 0.09 | 1.71 ± 0.046
VDESLLSTLPAGKSLVS [QCR2] | 2.65 ± 0.15 | 2.81 ± 0.22 | 1.85 ± 0.26 | 2.41 ± 0.13
QDKMFVSNPIRKVFKPS [FAS1] | 3.01 ± 0.058 | 2.62 ± 0.054 | 2.03 ± 0.1 | 2.68 ± 0.06
YPKLTLDFQTNKRLCDE [RPS17A] | 3.11 ± 0.073 | 3.06 ± 0.064 | 3.06 ± 0.044 | 3.23 ± 0.059
MMTGAEQDPYSNASQMG [RPB3] | 2.68 ± 0.14 | 2.44 ± 0.13 | 2.21 ± 0.2 | 2.92 ± 0.1
VAAERAARKAANKEKRA [RPL7A] | 2.36 ± 0.21 | 1.54 ± 0.12 | – | 1.71 ± 0.082
REHFEKTVAVDSVFEQN [RPL3] | 2.94 ± 0.12 | 2.93 ± 0.18 | 2.12 ± 0.12 | 2.37 ± 0.12
KTKKLNLSAFKIVYIAP [BRR2] | 2.13 ± 0.056 | 2.1 ± 0.052 | 2.19 ± 0.069 | 2.27 ± 0.052
VAQQQVQRQIEQQKGQQ [SNF5] | 3.42 ± 0.079 | 3.14 ± 0.1 | 3.46 ± 0.075 | 3.19 ± 0.089
YNSFPHSNLEKISNSKL [SIR4] | 2.77 ± 0.066 | 2.65 ± 0.076 | 2.61 ± 0.043 | 2.76 ± 0.048
SSYMGKHWTEKSLHEMN [PRP28] | 3.23 ± 0.14 | 3.14 ± 0.23 | 3.07 ± 0.19 | –
DVNSASKSESDSQIVTP [RRP4] | 3.17 ± 0.088 | 3.28 ± 0.073 | 3.06 ± 0.099 | 2.78 ± 0.1
LLDFNTALKQYEKELMG [RPN6] | 3.14 ± 0.25 | 3.33 ± 0.19 | 3.32 ± 0.25 | 3.12 ± 0.13
VAGSKCWAVRADVHFLD [RRP45] | 2.07 ± 0.17 | 2.23 ± 0.14 | – | 2.26 ± 0.22
